Laboratory results published in article PMC4052767 (Genes & Development, 2014).

T1: Yeast Hat2p (full length) with N-terminal 6xHis tag (yeast (Saccharomyces cerevisiae), UniProt P39984 1-401)
T1 sequence: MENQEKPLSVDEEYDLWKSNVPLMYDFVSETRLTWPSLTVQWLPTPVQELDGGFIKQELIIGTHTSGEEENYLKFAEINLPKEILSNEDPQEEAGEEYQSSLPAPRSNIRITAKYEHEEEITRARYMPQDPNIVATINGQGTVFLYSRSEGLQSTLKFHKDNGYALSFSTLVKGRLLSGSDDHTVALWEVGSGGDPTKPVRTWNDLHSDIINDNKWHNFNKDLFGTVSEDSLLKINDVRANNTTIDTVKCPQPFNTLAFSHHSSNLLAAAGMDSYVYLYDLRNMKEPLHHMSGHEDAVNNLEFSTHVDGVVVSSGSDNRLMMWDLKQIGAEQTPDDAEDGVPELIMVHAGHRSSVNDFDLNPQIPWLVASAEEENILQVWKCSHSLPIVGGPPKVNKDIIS

B1: Yeast Hat1p (1-320) (enzyme)
chain: MSANDFKPETWTSSANEALRVSIVGENAVQFSPLFTYPIYGDSEKIYGYKDLIIHLAFDSVTFKPYVNVKYSAKLGDDNIVDVEKKLLSFLPKDDVIVRDEAKWVDCFAEERKTHNLSDVFEKVSEYSLNGEEFVVYKSSLVDDFARRMHRRVQIFSLLFIEAANYIDETDPSWQIYWLLNKKTKELIGFVTTYKYWHYLGAKSFDEDIDKKFRAKISQFLIFPPYQNKGHGSCLYEAIIQSWLEDKSITEITVEDPNEAFDDLRDRNDIQRLRKLGYDAVFQKHSDLSDEFLESSRKSLKLEERQFNRLVEMLLLLNNS
B2: Hat1p Y196A (enzyme)
chain: MSANDFKPETWTSSANEALRVSIVGENAVQFSPLFTYPIYGDSEKIYGYKDLIIHLAFDSVTFKPYVNVKYSAKLGDDNIVDVEKKLLSFLPKDDVIVRDEAKWVDCFAEERKTHNLSDVFEKVSEYSLNGEEFVVYKSSLVDDFARRMHRRVQIFSLLFIEAANYIDETDPSWQIYWLLNKKTKELIGFVTTYKAWHYLGAKSFDEDIDKKFRAKISQFLIFPPYQNKGHGSCLYEAIIQSWLEDKSITEITVEDPNEAFDDLRDRNDIQRLRKLGYDAVFQKHSDLSDEFLESSRKSLKLEERQFNRLVEMLLLLNNS
B3: Hat1p A163Y (enzyme)
chain: MSANDFKPETWTSSANEALRVSIVGENAVQFSPLFTYPIYGDSEKIYGYKDLIIHLAFDSVTFKPYVNVKYSAKLGDDNIVDVEKKLLSFLPKDDVIVRDEAKWVDCFAEERKTHNLSDVFEKVSEYSLNGEEFVVYKSSLVDDFARRMHRRVQIFSLLFIEYANYIDETDPSWQIYWLLNKKTKELIGFVTTYKYWHYLGAKSFDEDIDKKFRAKISQFLIFPPYQNKGHGSCLYEAIIQSWLEDKSITEITVEDPNEAFDDLRDRNDIQRLRKLGYDAVFQKHSDLSDEFLESSRKSLKLEERQFNRLVEMLLLLNNS
B4: Hat1p Y37A (enzyme)
chain: MSANDFKPETWTSSANEALRVSIVGENAVQFSPLFTAPIYGDSEKIYGYKDLIIHLAFDSVTFKPYVNVKYSAKLGDDNIVDVEKKLLSFLPKDDVIVRDEAKWVDCFAEERKTHNLSDVFEKVSEYSLNGEEFVVYKSSLVDDFARRMHRRVQIFSLLFIEAANYIDETDPSWQIYWLLNKKTKELIGFVTTYKYWHYLGAKSFDEDIDKKFRAKISQFLIFPPYQNKGHGSCLYEAIIQSWLEDKSITEITVEDPNEAFDDLRDRNDIQRLRKLGYDAVFQKHSDLSDEFLESSRKSLKLEERQFNRLVEMLLLLNNS
B5: Hat1p A202D (enzyme)
chain: MSANDFKPETWTSSANEALRVSIVGENAVQFSPLFTYPIYGDSEKIYGYKDLIIHLAFDSVTFKPYVNVKYSAKLGDDNIVDVEKKLLSFLPKDDVIVRDEAKWVDCFAEERKTHNLSDVFEKVSEYSLNGEEFVVYKSSLVDDFARRMHRRVQIFSLLFIEAANYIDETDPSWQIYWLLNKKTKELIGFVTTYKYWHYLGDKSFDEDIDKKFRAKISQFLIFPPYQNKGHGSCLYEAIIQSWLEDKSITEITVEDPNEAFDDLRDRNDIQRLRKLGYDAVFQKHSDLSDEFLESSRKSLKLEERQFNRLVEMLLLLNNS
B6: Hat1p Y194A (enzyme)
chain: MSANDFKPETWTSSANEALRVSIVGENAVQFSPLFTYPIYGDSEKIYGYKDLIIHLAFDSVTFKPYVNVKYSAKLGDDNIVDVEKKLLSFLPKDDVIVRDEAKWVDCFAEERKTHNLSDVFEKVSEYSLNGEEFVVYKSSLVDDFARRMHRRVQIFSLLFIEAANYIDETDPSWQIYWLLNKKTKELIGFVTTAKYWHYLGAKSFDEDIDKKFRAKISQFLIFPPYQNKGHGSCLYEAIIQSWLEDKSITEITVEDPNEAFDDLRDRNDIQRLRKLGYDAVFQKHSDLSDEFLESSRKSLKLEERQFNRLVEMLLLLNNS

These binders were tested against T1, Yeast Hat2p (full length) with … (assay: crystal structure).

Binding result, binds:
ARTKQTARKSTGGKA [H3 peptide (residues 1-15), unmodified]

These binders were tested against T1, Yeast Hat2p (full length) with … (assay: pull-down).

Binding result, binds:
B1
B2
B3
B4
B5
B6
